US20050064507

Experiments:
[1] = molecular target: T1, ANK1 peptide AQIVKRASLKRGKQ (SEQ ID NO:90) (not fully specified)
T1 chain: AQIVKRASLKRGKQ

[2] = molecular target: T2, ARHGAP6 peptide SAQITIPKDGQKRKKSLRKK (SEQ ID NO:156) (not fully specified)
T2 chain: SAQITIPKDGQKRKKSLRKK

[3] = molecular target: T3, CREB1 peptide EILSRRPSYRKILND (SEQ ID NO:106) (not fully specified)
T3 chain: EILSRRPSYRKILND

[4] = molecular target: T4, ERN1 peptide ISDFGLAKKLAVGRHSFSRR (SEQ ID NO:145) (not fully specified)
T4 chain: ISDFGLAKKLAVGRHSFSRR

[5] = molecular target: T5, ERN1 peptide KLAVGRHSFSRRSGV (SEQ ID NO:94) (not fully specified)
T5 chain: KLAVGRHSFSRRSGV

[6] = molecular target: T6, LIMK2 peptide KATTKKRTLRKNDRK (SEQ ID NO:108) (not fully specified)
T6 chain: KATTKKRTLRKNDRK

[7] = molecular target: T7, M1 muscarinic receptor peptide RWDKRRWRKIPKRPGSVHRT (SEQ ID NO:155) (not fully specified)
T7 chain: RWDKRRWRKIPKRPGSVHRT

[8] = molecular target: T8, MARCKS peptide KKRFSFKKSFKLSGFSFKKN (SEQ ID NO:119) (not fully specified)
T8 chain: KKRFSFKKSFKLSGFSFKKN

[9] = molecular target: T9, MARCKS peptide PSPSNETPKKKKKRFSFKKS (SEQ ID NO:157) (not fully specified)
T9 chain: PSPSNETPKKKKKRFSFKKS

[10] = molecular target: T10, MacMARCKS peptide KKKFSFKKPFKLSGLSFKRN (SEQ ID NO:162) (not fully specified)
T10 chain: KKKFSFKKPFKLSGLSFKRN

[11] = molecular target: T11, NF1 peptide AGSFKRNSIKKIV (SEQ ID NO:102) (not fully specified)
T11 chain: AGSFKRNSIKKIV

[12] = molecular target: T12, PARIS1 peptide EYLERRASRRRAV (SEQ ID NO:138) (not fully specified)
T12 chain: EYLERRASRRRAV

[13] = molecular target: T13, PARIS1 peptide EYLERRASRRRAV (SEQ ID NO:89) (not fully specified)
T13 chain: EYLERRASRRRAV

[14] = molecular target: T14, PARIS1 peptide RELEQLKAEYLERRASRRRA (SEQ ID NO:148) (not fully specified)
T14 chain: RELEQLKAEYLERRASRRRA

[15] = molecular target: T15, PKD1 peptide RVVQSVKHTKRKSSTVMK (SEQ ID NO:149) (not fully specified)
T15 chain: RVVQSVKHTKRKSSTVMK

[16] = molecular target: T16, PLEC1 peptide KRERKTSSKSSVRKRR (SEQ ID NO:81) (not fully specified)
T16 chain: KRERKTSSKSSVRKRR

[17] = molecular target: T17, PPP1R14A peptide QKRHARVTVKYDRRE (SEQ ID NO:107) (not fully specified)
T17 chain: QKRHARVTVKYDRRE

[18] = molecular target: T18, PSCD2 peptide AARKKRISVKKKQEQ (SEQ ID NO:93) (not fully specified)
T18 chain: AARKKRISVKKKQEQ

[19] = molecular target: T19, SPTBN4 peptide EGGDRRASGRRK (SEQ ID NO:110) (not fully specified)
T19 chain: EGGDRRASGRRK

[20] = molecular target: T20, Urotensin-2 receptor peptide LYARLARAYRRSQRASFKRA (SEQ ID NO:159) (not fully specified)
T20 chain: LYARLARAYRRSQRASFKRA

[21] = molecular target: T21, beta adducin peptide KKKFRTPSFLKKSKK (SEQ ID NO:135) (not fully specified)
T21 chain: KKKFRTPSFLKKSKK

[22] = molecular target: T22, dag kinase iota peptide PQNSLKASNRKKKRTSFKRK (SEQ ID NO:151) (not fully specified)
T22 chain: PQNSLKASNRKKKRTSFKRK

[23] = molecular target: T23, nuclear RNA export factor 3 peptide VRYTPYTISPYNRKGSFRKQ (SEQ ID NO:143) (not fully specified)
T23 chain: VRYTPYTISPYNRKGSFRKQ

[24] = molecular target: T24, p164-RhoGEF peptide PRLIRRGSKKRPAR (SEQ ID NO:82) (not fully specified)
T24 chain: PRLIRRGSKKRPAR

[25] = molecular target: T25, p47phox peptide QAQRQIKRGAPPRRSSIRNA (SEQ ID NO:146) (not fully specified)
T25 chain: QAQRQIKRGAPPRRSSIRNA

[26] = molecular target: T26, pkc-zeta peptide GLPAPGEDKSIYRRGSRRWR (SEQ ID NO:167) (not fully specified)
T26 chain: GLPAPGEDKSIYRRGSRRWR

[27] = molecular target: T27, pleckstrin 1 peptide KAIKAIEGGQKFARKSTRRS (SEQ ID NO:126) (not fully specified)
T27 chain: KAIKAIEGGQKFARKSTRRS

[28] = molecular target: T28, plectin peptide PLKEKKRERKTSSKSSVRKR (SEQ ID NO:125) (not fully specified)
T28 chain: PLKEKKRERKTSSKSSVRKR

[29] = molecular target: T29, titin peptide PFEVVWYKDKRQLRSSKKYK (SEQ ID NO:160) (not fully specified)
T29 chain: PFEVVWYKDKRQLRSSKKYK

B1: PKC-zeta (protein)
chain: MPSRTGPKMEGSGGRVRLKAHYGGDIFITSVDAATTFEELCEEVRDMCRLHQQHPLTLKWVDSEGDPCTVSSQMELEEAFRLARQCRDEGLIIHVFPSTPEQPGLPCPGEDKSIYRRGARRWRKLYRANGHLFQAKRFNRRAYCGQCSERIWGLARQGYRCINCKLLVHKRCHGLVPLTCRKHMDSVMPSQEPPVDDKNEDADLPSEETDGIAYISSSRKHDSIKDDSEDLKPVIDGMDGIKISQGLGLQDFDLIRVIGRGSYAKVLLVRLKKNDQIYAMKVVKKELVHDDEDIDWVQTEKHVFEQASSNPFLVGLHSCFQTTSRLFLVIEYVNGGDLMFHMQRQRKLPEEHARFYAAEICIALNFLHERGIIYRDLKLDNVLLDADGHIKLTDYGMCKEGLGPGDTTSTFCGTPNYIAPEILRGEEYGFSVDWWALGVLMFEMMAGRSPFDIITDNPDMNTEDYLFQVILEKPIRIPRFLSVKASHVLKGFLNKDPKERLGCRPQTGFSDIKSHAFFRSIDWDLLEKKQALPPFQPQITDDYGLDNFDTQFTSEPVQLTPDDEDAIKRIDQSEFEGFEYINPLLLSTEESV
Work on B1 yielded an in vitro phosphorylation (% of best substrate) [1] of 5, an in vitro phosphorylation, 1 uM peptide (% of best substrate) [2] of 15 and an in vitro phosphorylation, 10 uM peptide (% of best substrate) [2] of 44. The in vitro phosphorylation (% of best substrate) [3] was 15, the in vitro phosphorylation, 1 uM peptide (% of best substrate) [4] was 25 and the in vitro phosphorylation, 10 uM peptide (% of best substrate) [4] was 61. For the same protein, the in vitro phosphorylation (% of best substrate) [5] was 10, the in vitro phosphorylation (% of best substrate) [6] was 1 and the in vitro phosphorylation, 1 uM peptide (% of best substrate) [7] was 19. It also gave an in vitro phosphorylation, 10 uM peptide (% of best substrate) [7] of 6, an in vitro phosphorylation, 1 uM peptide (% of best substrate) [8] of 20 and an in vitro phosphorylation, 10 uM peptide (% of best substrate) [8] of 20. It also gave an in vitro phosphorylation, 1 uM peptide (% of best substrate) [9] of 3, an in vitro phosphorylation, 10 uM peptide (% of best substrate) [9] of 6 and an in vitro phosphorylation, 1 uM peptide (% of best substrate) [10] of 7. The in vitro phosphorylation, 10 uM peptide (% of best substrate) [10] was 4, the in vitro phosphorylation (% of best substrate) [11] was 2 and the in vitro phosphorylation, 1 uM peptide (% of best substrate) [12] was 31. The in vitro phosphorylation, 10 uM peptide (% of best substrate) [12] was 61, the in vitro phosphorylation (% of best substrate) [13] was 14 and the in vitro phosphorylation, 1 uM peptide (% of best substrate) [14] was 20. The in vitro phosphorylation, 10 uM peptide (% of best substrate) [14] was 20, the in vitro phosphorylation, 1 uM peptide (% of best substrate) [15] was 3 and the in vitro phosphorylation, 10 uM peptide (% of best substrate) [15] was 5. It also gave an in vitro phosphorylation (% of best substrate) [16] of 10, an in vitro phosphorylation (% of best substrate) [17] of 1 and an in vitro phosphorylation (% of best substrate) [18] of 1. The in vitro phosphorylation (% of best substrate) [19] was 3, the in vitro phosphorylation, 1 uM peptide (% of best substrate) [20] was 25 and the in vitro phosphorylation, 10 uM peptide (% of best substrate) [20] was 41. It also gave an in vitro phosphorylation, 1 uM peptide (% of best substrate) [21] of 11, an in vitro phosphorylation, 10 uM peptide (% of best substrate) [21] of 13 and an in vitro phosphorylation, 1 uM peptide (% of best substrate) [22] of 15. The in vitro phosphorylation, 10 uM peptide (% of best substrate) [22] was 28, the in vitro phosphorylation, 1 uM peptide (% of best substrate) [23] was 22 and the in vitro phosphorylation, 10 uM peptide (% of best substrate) [23] was 79. For the same protein, the in vitro phosphorylation (% of best substrate) [24] was 38, the in vitro phosphorylation, 1 uM peptide (% of best substrate) [25] was 32 and the in vitro phosphorylation, 10 uM peptide (% of best substrate) [25] was 56. The in vitro phosphorylation, 1 uM peptide (% of best substrate) [26] was 5, the in vitro phosphorylation, 10 uM peptide (% of best substrate) [26] was 37 and the in vitro phosphorylation, 1 uM peptide (% of best substrate) [27] was 46. The in vitro phosphorylation, 10 uM peptide (% of best substrate) [27] was 56, the in vitro phosphorylation, 1 uM peptide (% of best substrate) [28] was 13 and the in vitro phosphorylation, 10 uM peptide (% of best substrate) [28] was 12. It also gave an in vitro phosphorylation, 1 uM peptide (% of best substrate) [29] of 15 and an in vitro phosphorylation, 10 uM peptide (% of best substrate) [29] of 57.

B2: PKC-epsilon (protein)
chain: MVVFNGLLKIKICEAVSLKPTAWSLRHAVGPRPQTFLLDPYIALNVDDSRIGQTATKQKTNSPAWHDEFVTDVCNGRKIELAVFHDAPIGYDDFVANCTIQFEELLQNGSRHFEDWIDLEPEGRVYVIIDLSGSSGEAPKDNEERVFRERMRPRKRQGAVRRRVHQVNGHKFMATYLRQPTYCSHCRDFIWGVIGKQGYQCQVCTCVVHKRCHELIITKCAGLKKQETPDQVGSQRFSVNMPHKFGIHNYKVPTFCDHCGSLLWGLLRQGLQCKVCKMNVHRRCETNVAPNCGVDARGIAKVLADLGVTPDKITNSGQRRKKLIAGAESPQPASGSSPSEEDRSKSAPTSPCDQEIKELENNIRKALSFDNRGEEHRAASSPDGQLMSPGENGEVRQGQAKRLGLDEFNFIKVLGKGSFGKVMLAELKGKDEVYAVKVLKKDVILQDDDVDCTMTEKRILALARKHPYLTQLYCCFQTKDRLFFVMEYVNGGDLMFQIQRSRKFDEPRSRFYAAEVTSALMFLHQHGVIYRDLKLDNILLDAEGHCKLADFGMCKEGILNGVTTTTFCGTPDYIAPEILQELEYGPSVDWWALGVLMYEMMAGQPPFEADNEDDLFESILHDDVLYPVWLSKEAVSILKAFMTKNPHKRLGCVASQNGEDAIKQHPFFKEIDWVLLEQKKIKPPFKPRIKTKRDVNNFDQDFTREEPVLTLVDEAIVKQINQEEFKGFSYFGEDLMP
B2 gave an in vitro phosphorylation (% of best substrate) [1] of 49, an in vitro phosphorylation, 1 uM peptide (% of best substrate) [2] of 18 and an in vitro phosphorylation (% of best substrate) [3] of 31. For the same protein, the in vitro phosphorylation, 1 uM peptide (% of best substrate) [4] was 26, the in vitro phosphorylation (% of best substrate) [5] was 13 and the in vitro phosphorylation (% of best substrate) [6] was 8. The in vitro phosphorylation, 1 uM peptide (% of best substrate) [7] was 26, the in vitro phosphorylation, 1 uM peptide (% of best substrate) [8] was 81 and the in vitro phosphorylation, 1 uM peptide (% of best substrate) [9] was 12. It also gave an in vitro phosphorylation, 1 uM peptide (% of best substrate) [10] of 19, an in vitro phosphorylation (% of best substrate) [11] of 14 and an in vitro phosphorylation, 1 uM peptide (% of best substrate) [12] of 27. It also gave an in vitro phosphorylation (% of best substrate) [13] of 45, an in vitro phosphorylation, 1 uM peptide (% of best substrate) [14] of 33 and an in vitro phosphorylation, 1 uM peptide (% of best substrate) [15] of 27. For the same protein, the in vitro phosphorylation (% of best substrate) [16] was 59, the in vitro phosphorylation (% of best substrate) [17] was 7 and the in vitro phosphorylation (% of best substrate) [18] was 40. It also gave an in vitro phosphorylation (% of best substrate) [19] of 4, an in vitro phosphorylation, 1 uM peptide (% of best substrate) [20] of 25 and an in vitro phosphorylation, 1 uM peptide (% of best substrate) [21] of 27. The in vitro phosphorylation, 1 uM peptide (% of best substrate) [22] was 24, the in vitro phosphorylation, 1 uM peptide (% of best substrate) [23] was 21 and the in vitro phosphorylation (% of best substrate) [24] was 72. The in vitro phosphorylation, 1 uM peptide (% of best substrate) [25] was 28, the in vitro phosphorylation, 1 uM peptide (% of best substrate) [26] was 6 and the in vitro phosphorylation, 1 uM peptide (% of best substrate) [27] was 69. It also gave an in vitro phosphorylation, 1 uM peptide (% of best substrate) [28] of 48 and an in vitro phosphorylation, 1 uM peptide (% of best substrate) [29] of 13.
